# Laboratory results: IntAct's records for PubMed 39009827
# B1: Keratin, type II cytoskeletal 1 (Homo sapiens), P04264 (parent)
# chain: MSRQFSSRSGYRSGGGFSSGSAGIINYQRRTTSSSTRRSGGGGGRFSSCGGGGGSFGAGGGFGSRSLVNLGGSKSISISVARGGGRGSGFGGGYGGGGFGGGGFGGGGFGGGGIGGGGFGGFGSGGGGFGGGGFGGGGYGGGYGPVCPPGGIQEVTINQSLLQPLNVEIDPEIQKVKSREREQIKSLNNQFASFIDKVRFLEQQNQVLQTKWELLQQVDTSTRTHNLEPYFESFINNLRRRVDQLKSDQSRLDSELKNMQDMVEDYRNKYEDEINKRTNAENEFVTIKKDVDGAYMTKVDLQAKLDNLQQEIDFLTALYQAELSQMQTQISETNVILSMDNNRSLDLDSIIAEVKAQYEDIAQKSKAEAESLYQSKYEELQITAGRHGDSVRNSKIEISELNRVIQRLRSEIDNVKKQISNLQQSISDAEQRGENALKDAKNKLNDLEDALQQAKEDLARLLRDYQELMNTKLALDLEIATYRTLLEGEESRMSGECAPNVSVSVSTSHTTISGGGSRGGGGGGYGSGGSSYGSGGGSYGSGGGGGGGRGSYGSGGSSYGSGGGSYGSGGGGGGHGSYGSGSSSGGYRGGSGGGGGGSSGGRGSGGGSSGGSIGGRGSSSGGVKSSGGSSSVKFVSTTYSGVTR
# B2: Mitotic checkpoint serine/threonine-protein kinase BUB1 (Homo sapiens), O43683 (parent)
# chain: MDTPENVLQMLEAHMQSYKGNDPLGEWERYIQWVEENFPENKEYLITLLEHLMKEFLDKKKYHNDPRFISYCLKFAEYNSDLHQFFEFLYNHGIGTLSSPLYIAWAGHLEAQGELQHASAVLQRGIQNQAEPREFLQQQYRLFQTRLTETHLPAQARTSEPLHNVQVLNQMITSKSNPGNNMACISKNQGSELSGVISSACDKESNMERRVITISKSEYSVHSSLASKVDVEQVVMYCKEKLIRGESEFSFEELRAQKYNQRRKHEQWVNEDRHYMKRKEANAFEEQLLKQKMDELHKKLHQVVETSHEDLPASQERSEVNPARMGPSVGSQQELRAPCLPVTYQQTPVNMEKNPREAPPVVPPLANAISAALVSPATSQSIAPPVPLKAQTVTDSMFAVASKDAGCVNKSTHEFKPQSGAEIKEGCETHKVANTSSFHTTPNTSLGMVQATPSKVQPSPTVHTKEALGFIMNMFQAPTLPDISDDKDEWQSLDQNEDAFEAQFQKNVRSSGAWGVNKIISSLSSAFHVFEDGNKENYGLPQPKNKPTGARTFGERSVSRLPSKPKEEVPHAEEFLDDSTVWGIRCNKTLAPSPKSPGDFTSAAQLASTPFHKLPVESVHILEDKENVVAKQCTQATLDSCEENMVVPSRDGKFSPIQEKSPKQALSSHMYSASLLRLSQPAAGGVLTCEAELGVEACRLTDTDAAIAEDPPDAIAGLQAEWMQMSSLGTVDAPNFIVGNPWDDKLIFKLLSGLSKPVSSYPNTFEWQCKLPAIKPKTEFQLGSKLVYVHHLLGEGAFAQVYEATQGDLNDAKNKQKFVLKVQKPANPWEFYIGTQLMERLKPSMQHMFMKFYSAHLFQNGSVLVGELYSYGTLLNAINLYKNTPEKVMPQGLVISFAMRMLYMIEQVHDCEIIHGDIKPDNFILGNGFLEQDDEDDLSAGLALIDLGQSIDMKLFPKGTIFTAKCETSGFQCVEMLSNKPWNYQIDYFGVAATVYCMLFGTYMKVKNEGGECKPEGLFRRLPHLDMWNEFFHVMLNIPDCHHLPSLDLLRQKLKKVFQQHYTNKIRALRNRLIVLLLECKRSRK
# B3: Zinc finger protein 526 (Homo sapiens), Q8TF50 (parent)
# chain: MAEVVAEVAEMPTQMSPGAVEMSTPMSAEMMEMSTEVTEMTPGEALASSLFFQHHQFMCSECGSLYNTLEEVLSHQEQHMLAVSEEEALTTQNVGLEPELVPGAEGPFQCGECSQLILSPGELLAHQDAHLRESANQIQYQCWDCQELFPSPELWVAHRKAQHLSATVAEPPVPPPLPPPTPLPPPSPPSEVKMEPYECPECSTLCATPEEFLEHQGTHFDSLEKEERNGLEEEEEDDEEDEEDDEEMEDEEAMAEVGDDAVGGDESTAGWAQGCGDCPQHQPSAGARRQHRRTAHSPASATHPFHCSQCQRSFSSANRLQAHGRAHVGGTHECTTCSKVFKKAASLEQHLRLHRGEARYLCVDCGRGFGTELTLVAHRRAHTANPLHRCRCGKTFSNMTKFLYHRRTHAGKSGAPPTGATAPPAPAEPTPPPPPPAPPAQLPCPQCSKSFASASRLSRHRRAVHGPPERRHRCGVCGKGFKKLIHVRNHLRTHTGERPFQCHSCGKTFASLANLSRHQLTHTGARPYQCLDCGKRFTQSSNLQQHRRLHLRPVAFARAPRLPITGLYNKSPYYCGTCGRWFRAMAGLRLHQRVHARARTLTLQPPRSPSPAPPPPPEPQQTIMCTELGETIAIIETSQPLALEDTLQLCQAALGASEAGGLLQLDTAFV
# Variants of: B1
# Conditions: with mlp3a_human MAP1LC3A
row,effect of a mutation on the interaction,Variant
1,disrupting interaction strength,L214P

# Variants of: B2
# Conditions: with mlp3b_human MAP1LC3B
row,effect of a mutation on the interaction,Variant
1,increasing interaction strength,S492F

# Variants of: B2
# Conditions: with gbrl1_human GABARAPL1, Q9H0R8
# gbrl1_human GABARAPL1, Q9H0R8, sequence (Q9H0R8 whole entry, looked up): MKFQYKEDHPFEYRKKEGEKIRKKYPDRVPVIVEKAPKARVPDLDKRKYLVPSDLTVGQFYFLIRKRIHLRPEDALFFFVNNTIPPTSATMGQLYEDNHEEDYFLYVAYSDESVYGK
row,effect of a mutation on the interaction,Variant
1,increasing interaction strength,S492F

# Variants of: B3
# Conditions: with ima3_human KPNA4, O00629
# ima3_human KPNA4, O00629, sequence (O00629 whole entry): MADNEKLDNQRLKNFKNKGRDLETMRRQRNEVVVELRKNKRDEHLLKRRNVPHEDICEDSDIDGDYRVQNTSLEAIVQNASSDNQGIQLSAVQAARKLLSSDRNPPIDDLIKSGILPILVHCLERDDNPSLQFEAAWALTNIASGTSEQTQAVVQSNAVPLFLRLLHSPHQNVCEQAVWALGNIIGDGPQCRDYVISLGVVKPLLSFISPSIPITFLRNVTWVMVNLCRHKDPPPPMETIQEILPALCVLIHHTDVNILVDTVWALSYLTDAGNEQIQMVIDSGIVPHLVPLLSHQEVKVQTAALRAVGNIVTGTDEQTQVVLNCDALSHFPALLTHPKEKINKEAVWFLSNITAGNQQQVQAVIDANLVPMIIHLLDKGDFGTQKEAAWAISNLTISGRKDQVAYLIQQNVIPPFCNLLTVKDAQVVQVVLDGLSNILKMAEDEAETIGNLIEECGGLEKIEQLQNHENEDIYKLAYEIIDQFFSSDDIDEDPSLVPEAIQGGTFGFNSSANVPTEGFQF
row,effect of a mutation on the interaction,Variant
1,disrupting interaction strength,K160T

# Variants of: B3
# Conditions: with ima3_human KPNA4, O00629
# Remark: another data set of the same source
row,effect of a mutation on the interaction,Variant
1,decreasing interaction strength,K160T
